Data on three molecules can be found in article PMC6822988, “Native adiponectin in serum binds to mammalian cells expressing T-cadherin, but not AdipoRs or calreticulin” (eLife, 2019).

The target in data set [1] is adiponectin (HMW) (Homo sapiens) (UniProt Q15848). The note with it: cited from earlier work.
Data set [2] concerns the molecule itself. The data set is described as follows: native gel or EMSA; native-PAGE of purified or recombinant adiponectin, 50 ng adiponectin, Western blot.
Data set [3] deals with the molecule itself. The experiment in a line: native gel or EMSA; native-PAGE of mouse serum, 50 ng adiponectin, Western blot.

adiponectin (HMW) (Homo sapiens), sequence (Q15848 19-244): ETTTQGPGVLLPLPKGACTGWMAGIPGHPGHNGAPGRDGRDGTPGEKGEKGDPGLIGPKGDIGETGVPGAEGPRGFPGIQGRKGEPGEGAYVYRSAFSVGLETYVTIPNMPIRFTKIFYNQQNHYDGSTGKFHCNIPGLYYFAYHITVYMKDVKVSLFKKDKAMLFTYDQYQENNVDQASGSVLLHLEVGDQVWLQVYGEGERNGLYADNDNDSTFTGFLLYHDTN

T-cadherin (from UniProt P55290): in data set [1], the Kd was 1 nM.

B1: Full-length mammalian recombinant mouse adiponectin (ligand, UniProt Q60994 18-247, looked up)
chain: EDDVTTTEELAPALVPPPKGTCAGWMAGIPGHPGHNGTPGRDGRDGTPGEKGEKGDAGLLGPKGETGDVGMTGAEGPRGFPGTPGRKGEPGEAAYVYRSAFSVGLETRVTVPNVPIRFTKIFYNQQNHYDGSTGKFYCNIPGLYYFSYHITVYMKDVKVSLFKKDKAVLFTYDQYQEKNVDQASGSVLLHLEVGDQVWLQVYGDGDHNGLYADNVNDSTFTGFLLYHDTN
notes: adiponectin, mouse, full-length recombinant, produced in HEK293 cells; contains less 6-mer and HMW multimer than serum adiponectin; the secreted product probably lacks the signal peptide; also called recombinant adiponectin; full-length recombinant adiponectin produced in HEK293 cells; source: bought: BioVendor (RD272023100), produced in HEK293 cells
Turning to B1, the binding result in data set [2] is “binds”.

B2: native mouse adiponectin in mouse serum (ligand, UniProt Q60994 18-247, looked up)
chain: EDDVTTTEELAPALVPPPKGTCAGWMAGIPGHPGHNGTPGRDGRDGTPGEKGEKGDAGLLGPKGETGDVGMTGAEGPRGFPGTPGRKGEPGEAAYVYRSAFSVGLETRVTVPNVPIRFTKIFYNQQNHYDGSTGKFYCNIPGLYYFSYHITVYMKDVKVSLFKKDKAVLFTYDQYQEKNVDQASGSVLLHLEVGDQVWLQVYGDGDHNGLYADNVNDSTFTGFLLYHDTN
notes: adiponectin, mouse, circulating protein of serum; multimers (6-mer and HMW multimer) seen by native-PAGE; Used both as whole serum and as adiponectin purified from serum; Mixture of multimers; also called mouse serum adiponectin; native adiponectin; source: endogenous, serum of C57BL6J mice, used as serum without processing; also purified from mouse serum (Fukuda et al., 2017)
As to B2, in data set [3], the binding result is on record as “binds”.
